Laboratory results as given in patent US20230174652A1 (Regeneron, published 2023).
One block for each binder: values may come before it.

Legend:
[1] = target: T1, hCD22.mmH (human, UniProt P20273 20-687); experiment: SPR (Biacore), mAb captured by anti-human Fc, hCD22.mmH injected, 25°C
T1 construct: also called REGN5140; recombinant human CD22
Experimental: (§1) All of the binding kinetics experiments were performed at 25° C. Kinetic association (kₐ) and dissociation (kd) rate constants were determined by fitting the real-time sensorgrams to a 1:1 binding model using Scrubber 2.0c curve fitting software.

[2] = target: T2, human CD22 on cells (human, UniProt P20273 20-847); experiment: flow cytometry on Nalm6 cells (human CD22)
T2 construct: whole, on cells; also called hCD22; CD22 on Nalm6 cells
Experimental: (§2) Flow cytometric analysis was utilized to determine binding of CD22×CD28 bispecific antibodies to human CD22 expressing Nalm6 cells and human CD28 expressing Jurkat cells and to cynomolgus monkey T (CD28+) and B (CD22+) cells. […] After incubation, the cells were washed twice with cold PBS containing 1% filtered FBS and a PE-conjugated anti-human secondary antibody was added to the cells and incubated for an additional 30 minutes. An additional phenotyping antibody cocktail (anti-CD2, anti-CD20, anti-CD16, anti-CD14) was added to wells with cynomolgus monkey PBCMs. Wells containing no antibody or secondary only were used as a control.
(§3) After incubation with secondary antibody, cells were washed, re-suspended in 200 μL cold PBS containing 1% filtered FBS and analyzed by flow cytometry on a BD LSR_Fortessa. Cynomolgus monkey T cells were identified as CD2+/CD16− and B cells as CD20+. EC₅₀ values for FACS binding were calculated using 4-parameter non-linear regression analysis in Prism software.

[3] = target: T3, hCD28.mmH (human); experiment: SPR (Biacore T-200), mAb captured by anti-human Fc, hCD28.mmH injected, 25°C
T3 construct: also called human CD28 with a C-terminal myc.myc hexahistidine tag
Experimental: as §1

[4] = target: T4, human CD20 on HEK293/hCD20 cells (human, UniProt P11836 1-297); experiment: flow cytometry on HEK293/hCD20 cells (negative for CD22 and CD28), geometric mean MFI of APC
T4 construct: whole, on cells; Used as a cell line negative for CD28 and CD22; also called negative cell line for CD28 and CD22
T4 sequence (looked up): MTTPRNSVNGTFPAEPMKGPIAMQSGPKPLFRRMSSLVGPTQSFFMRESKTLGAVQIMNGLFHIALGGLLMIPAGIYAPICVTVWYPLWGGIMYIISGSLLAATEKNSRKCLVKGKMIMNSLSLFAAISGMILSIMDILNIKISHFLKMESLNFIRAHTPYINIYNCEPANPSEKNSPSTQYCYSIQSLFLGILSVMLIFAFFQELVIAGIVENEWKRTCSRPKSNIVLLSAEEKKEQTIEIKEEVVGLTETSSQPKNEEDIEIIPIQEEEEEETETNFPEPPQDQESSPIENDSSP
Experimental: (§4) Briefly, human CD4+ T-cells, HEK293/hCD20, HEK293/hCD20/hCD22 and Raji/CD80 and CD86 negative cells were resuspended in staining buffer containing D-PBS+2% FBS. […] A negative control sample was included containing no antibody. Cells were washed once with cold staining buffer and incubated for 30-45 minutes with Allophycocyanin (APC) labeled anti-human secondary antibody. After incubation, cells were washed once with cold D-PBS buffer without FBS and incubated with LIVE/DEAD Fixable Green Dead Cell Stain (Invitrogen) according to manufacturer's instructions to discriminate between live and dead cells. Cells were then fixed in BD Cytofix Buffer according to manufacturer's instructions, washed, re-suspended in staining buffer, and analyzed by flow cytometry on an iQue Screener flow cytometer. For EC₅₀ determinations, geometric mean fluorescence intensity (MFI) values were analyzed using a four parameter logistic equation over a 9-point response curve using GraphPad Prism. Fold binding was calculated using the following equation:

[5] = target: T5, human CD28 on cells (human, UniProt P10747 19-220); experiment: flow cytometry on Jurkat cells (human CD28)
T5 construct: whole, on cells; also called CD28 on Jurkat cells; CD28 on human CD4+ T-cells
Experimental: as §2, §3

[6] = target: T6, human CD22 (human, UniProt P20273 20-847); experiment: flow cytometry on Raji/CD80 and CD86 negative cells
T6 construct: whole, on cells; also called hCD22
Experimental: as §4

[7] = target: T6, human CD22; experiment: flow cytometry on HEK293/hCD20/hCD22 cells
Experimental: as §4

[8] = target: T2, human CD22 on cells; experiment: flow cytometry on HEK293/hCD20/hCD22 cells, geometric mean MFI of APC
Experimental: as §4

[9] = target: T7, Monkey CD22.mmH (XP_005588899.1) (monkey (cyno)); experiment: SPR (Biacore), mAb captured by anti-human Fc, monkey CD22.mmH (XP_005588899.1) injected, 25°C
T7 construct: also called REGN5280; mfCD22.mmH
T7 chain: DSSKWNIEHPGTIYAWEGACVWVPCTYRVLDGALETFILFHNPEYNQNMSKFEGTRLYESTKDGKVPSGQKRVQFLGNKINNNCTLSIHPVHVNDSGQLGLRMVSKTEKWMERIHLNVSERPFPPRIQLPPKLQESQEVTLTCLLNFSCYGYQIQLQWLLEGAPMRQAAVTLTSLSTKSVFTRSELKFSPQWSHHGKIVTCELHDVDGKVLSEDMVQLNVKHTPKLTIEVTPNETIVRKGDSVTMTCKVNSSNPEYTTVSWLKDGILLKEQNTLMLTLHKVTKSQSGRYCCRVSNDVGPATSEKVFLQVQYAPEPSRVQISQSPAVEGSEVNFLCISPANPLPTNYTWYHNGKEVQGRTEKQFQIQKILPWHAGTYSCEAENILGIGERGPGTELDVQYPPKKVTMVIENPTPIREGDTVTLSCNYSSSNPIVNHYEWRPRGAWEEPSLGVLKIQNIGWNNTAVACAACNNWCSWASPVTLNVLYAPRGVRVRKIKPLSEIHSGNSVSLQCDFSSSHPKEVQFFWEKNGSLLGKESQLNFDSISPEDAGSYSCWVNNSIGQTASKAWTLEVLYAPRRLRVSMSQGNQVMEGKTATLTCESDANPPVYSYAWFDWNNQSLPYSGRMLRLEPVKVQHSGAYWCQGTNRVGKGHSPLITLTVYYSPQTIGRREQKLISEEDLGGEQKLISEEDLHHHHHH
Experimental: as §1

[10] = target: T8, Monkey CD22.mmH (EHH59463.1) (monkey (cyno)); experiment: SPR (Biacore), mAb captured by anti-human Fc, monkey CD22.mmH (EHH59463.1) injected, 25°C
T8 construct: also called REGN5281; mfCD22.mmH
T8 chain: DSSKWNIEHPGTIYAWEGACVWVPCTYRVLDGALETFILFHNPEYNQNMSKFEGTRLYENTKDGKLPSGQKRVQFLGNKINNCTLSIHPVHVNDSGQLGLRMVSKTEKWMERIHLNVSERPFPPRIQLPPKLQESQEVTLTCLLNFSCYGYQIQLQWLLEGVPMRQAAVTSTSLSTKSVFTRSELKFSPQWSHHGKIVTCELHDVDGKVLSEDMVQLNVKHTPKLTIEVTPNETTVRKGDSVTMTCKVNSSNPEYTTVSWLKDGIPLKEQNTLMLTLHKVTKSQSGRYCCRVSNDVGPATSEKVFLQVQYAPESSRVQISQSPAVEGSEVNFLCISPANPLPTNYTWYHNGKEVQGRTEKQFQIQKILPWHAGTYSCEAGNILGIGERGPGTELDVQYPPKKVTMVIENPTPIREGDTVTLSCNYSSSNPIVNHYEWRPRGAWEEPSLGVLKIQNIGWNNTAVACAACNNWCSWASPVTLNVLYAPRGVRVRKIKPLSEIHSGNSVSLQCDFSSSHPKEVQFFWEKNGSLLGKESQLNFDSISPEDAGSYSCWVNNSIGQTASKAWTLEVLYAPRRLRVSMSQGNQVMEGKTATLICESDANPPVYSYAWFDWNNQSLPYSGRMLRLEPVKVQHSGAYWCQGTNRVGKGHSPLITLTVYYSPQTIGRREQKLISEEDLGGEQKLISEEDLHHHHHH
Experimental: as §1

90 nM hCD22.mmH Bind (RU) [1]: 100 RU | Kd [1]: 8.75 nM | t½ [1]: 7.8 min | EC50 [2]: 13 nM | 600 nM hCD28.mmH Bind (RU) [3]: 72.9 RU | Kd [3]: 341 nM | binding result [4]: no binding (tested: 10^-7 M)
B1: REGN5837 (bispecific antibody, V domains shown)
VH 1: QVQLQESGPGLVKPSETLSLTCTVSGGSISSYYWSWIRQPPGKGLEWIGYIYYSGITHYNPSLKSRVTISVDTSKIQFSLKLSSVTAADTAVYYCARWGVRRDYYYYGMDVWGQGTTVTVSS
VH 2: EVQLVQSGAEVKKPGESLKISCKGSGYNFATYWIAWVRQMPGKGLELMGIIYPGDSETTYNPSFQGQVTISADKSISNAYLQWSSLKASDTAMYYCARVGGYCSGTSCHNWFDPWGLGTLVTVSS
VL: not shown
notes: also called anti-CD22 x anti-CD28 bispecific antibody; CD22xCD28 mAb

90 nM hCD22.mmH Bind (RU) [1]: 26.7 RU | Kd [1]: 14.3 nM | t½ [1]: 38.2 min | EC50 [2]: 18 nM | EC50 [5]: 23 nM | 600 nM hCD28.mmH Bind (RU) [3]: 77 RU | Kd [3]: 404 nM | t1/2 [3]: 2.3 min | binding result [4]: no binding (tested: 10^-7 M)
B2: REGN5838 (bispecific antibody, V domains shown)
VH 1: B1 VH 1
VH 2: EVQLVESGGGLVQPGGSLKLSCAASGFTFSGSDMHWVRQASGKGLEWVGRIRNQPNSYATAYAASVKGRFTISRDDSKNTAHLQMNSLKTEDTAVYFCTRQKQVVYNYHHYYGMDVWGQGTTVTVSS
VL: not shown
notes: as for B1

EC50 [6]: 14.9 nM | EC50 [7]: 11.4 nM
B3: REGN5838 (bispecific antibody, V domains shown)
VH 1: B1 VH 1
VH 2: B2 VH 2
VL: not shown
notes: also called anti-CD22 x anti-CD28 bispecific antibody; CD22xCD28

600 nM hCD28.mmH Bind (RU) [3]: 88.4 RU | t1/2 [3]: 2.4 min | binding result [4]: no binding (tested: 10^-7 M) | binding result [8]: no binding (tested: 10^-7 M)
B4: REGN5705 (antibody, V domains shown)
VH: B1 VH 1
VL: not shown
notes: also called CD28 mAb; parental CD28 antibody

t1/2 [9]: 4.3 min | 90 nM hCD22.mmH Bind (RU) [1]: 193 RU | t½ [1]: 7.8 min | Kd [10]: 35.6 nM | t1/2 [10]: 4 min
B5: H4sH33037P2 (antibody, V domains shown)
VH: B1 VH 2
VL: not shown
notes: Anti-CD22 bivalent parental monoclonal antibody; also called mAb33037P2; CD22 mAb

t1/2 [9]: 39.8 min | 90 nM hCD22.mmH Bind (RU) [1]: 61.5 RU | t½ [1]: 59.8 min | Kd [10]: 59.2 nM | t1/2 [10]: 29.6 min
B6: H4sH33041P2 (antibody, V domains shown)
VH: B2 VH 2
VL: not shown
notes: Anti-CD22 bivalent parental monoclonal antibody; also called mAb33041P2; CD22 mAb
